Data: patent US20200277405A1, “COMPOSITION FOR ANTIBODY-DRUG CONJUGATE DIRECTED AGAINST TUMOR-CELL ASSOCIATED POLYSIALIC ACID” (Cornell University, priority 2019, published 2020)
Blank lines part the entries; values can stand above or below the molecule they belong to.

What was measured:
polysialylated NCAM = test: SPR (Biacore) equilibrium binding to NCAM; design: species or system chicken; settings: antibody on Protein A sensor chip; NCAM 0.25-250 nM; Hill slope analysis in Prism
Description: FIGS. 5A-5D depict binding affinity analysis of mo735 and ch735 antibodies. Binding kinetics for the mo735 and ch735 antibodies were monitored using Biacore. Commercial mo735 or recombinant purified ch735 was immobilized at low concentrations on a Biacore Protein A sensor chip and the response to different concentrations of NCAM (ranging from 0.25-250 nM) was compared with an empty flow cell. FIGS. 5A-5B depicts representative sensorgram data for mo735 (FIG. 5A) and ch735 (FIG. 5B).
Equilibrium binding-affinity measurements were made by SPR analysis on a Biacore 3000 system. Antibodies mo735 and ch735 were bound to the surface of a Protein A sensor chip with a target level of 1700 response units (RUs). Serial dilutions of the antigen, chicken NCAM, prepared in 10 mM HEPES, pH 7.4, 150 mM NaCl, 3 mM EDTA, 0.005% polysorbate-20 (HBS-EP buffer, GE Healthcare) at concentrations ranging from 0.25 to 250 nM were injected over the chip using the same buffer at a flow rate of 20 μl/min (10 min injection time, 2 min stabilization time, 20 min dissociation). The surface of the chip was regenerated between the injections of each serial dilution with 10 mM glycine, pH 1.5 (30 sec injection time, 3 min stabilization time). Kinetic parameters were determined by fitting the maximum response values for each concentration using the Hill slope non-linear regression analysis in Prism software.

[1] = system: chicken brain-derived polysialylated neural cell adhesion molecule (NCAM); test: ELISA with immobilized NCAM; type: binding
Description: (§1) FIGS. 2A-2D depict binding specificity and affinity of the ch735 antibody. […] ELISA signals (Abs370) were obtained with anti-human IgG secondary antibodies. […] Antibodies were assayed at 1 μg/mL and detected with anti-human IgG secondary antibodies. […] Antibodies were assayed at 10 μg/mL and detected with anti-mouse IgG secondary antibodies.
as §1, with “3A-3D” for “2A-2D”, “mo735” for “the ch735”, “anti-mouse” for “anti-human”
Costar 96-well ELISA plates (Corning) were coated overnight at 4° C. with 50 μl of 1 μg/mL chicken brain NCAM (Millipore) or endoN-treated NCAM in PBS. Chicken NCAM (Millipore, AG265) was digested with 1.5 μg of endoN per 50 μg of NCAM overnight at 37° C. After blocking with 5% (w/v) milk in PBS for 1-3 h at room temperature or overnight at 4° C., ELISA plates were washed three times with wash buffer (PBST with 0.3% BSA) and incubated with serially diluted purified ch735, mo735 (Absolute Antibody), or ab5032 (Millipore) for 1 h at room temperature. Antibody samples were quantified with a Nanodrop. […]

[2] = system: polySia expressed on the surface of different cancer cell lines; test: Flow cytometric analysis of antibody binding to cancer cell lines; type: cell-based, human
Source text: FIGS. 6A-6D depict immunostaining of antibody ch735 to polySia-expressing cancer cells. […] Data are the geometric mean fluorescence intensity (MFI), with the values reported as the average of three replicates and the error represented as the standard deviation of the mean. […] Cells were stained with ch735, wheat germ agglutinin (WGA) to stain the cell membrane, and Hoescht to stain nuclei. Scale bars, 10 μm. […] Scale bars, 200 μm.
FIGS. 7A-7B depict binding of antibody ch735 and mo735 to polySia-expressing cancer cells. Representative fluorescence histograms for ch735 (FIG. 7A) and mo735 (FIG. 7B) binding to a panel of cancer cell lines measured by flow cytometry are shown. Histograms represent antibody binding to untreated cells, antibody binding to endoN-treated cells, and anti-human or anti-mouse secondary only control, respectively.
FIGS. 9A-9B depict binding of antibody mo735 to polySia-expressing cancer cells. […] Data are the geometric mean fluorescence intensity (MFI), with the values reported as the average of three replicates and the error represented as the standard deviation of the mean. […] Cells were stained with ch735, wheat germ agglutinin (WGA), and nuclei were stained with Hoescht. Scale bars, 10 μm.
Cancer cells were trypsinized and collected with media, followed by three washes in PBS. To remove polySia, cells were treated with endoN at 3 μg/mL in PBS for 1 h at room temperature. The cells are resuspended in 4% paraformaldehyde (PFA), fixed at room temperature with constant agitation for 10 min, and then washed two times with PBS, and two times with 0.5% BSA in PBS. The cells were collected and resuspended to 1 million cells/100 μL and pipetted into a round bottom 96-well plate. The cells were pelleted in the 96-well plate and resuspended in 0.5% BSA in PBS containing mo735 or ch735 (5 μg/mL) and incubated for 30 min at room temperature with constant agitation. Cells were washed three times with 0.5% BSA in PBS and resuspended in anti-mouse IgG-Alexa-Fluor 488 (AF488) secondary or anti-human IgG-AF488 secondary (ThermoFisher Scientific) at a 1:200 dilution for 30 min at room temperature in the dark with constant agitation. Cells were washed three times, resuspended in 500 μL of 0.5% BSA in PBS, and analyzed on a BD FACSCalibur flow cytometer using Cell Quest Pro software (BD Biosciences).

[3] = CFG glycan microarray specificity profiling; type: binding; settings: for glycan specificity from microarrays: CFG glycan array (v5.3 mo735, v5.4 ch735) and glycoprotein array
Description: as §1
as §1, with “3A-3D” for “2A-2D”, “mo735” for “the ch735”, “anti-mouse” for “anti-human”
Specificity of mo735 and ch735 was determined using printed glycan arrays 5.3 and 5.4 at the CFG. Both antibodies were analyzed at 10 μg/mL with 5 μg/mL of anti-mouse or anti-human Alexa-Fluor 647 (AF647)-conjugated secondary, respectively. Specificity of mo735 (1 μg/mL) and ch735 (10 μg/mL) was also assessed on a custom glycoprotein array that contained ˜40-50 glycoproteins including chicken brain NCAM and endoN-treated chicken brain NCAM.

[4] = CFG microarray version 5.4, 10 μg/mL

- Kd (polysialylated NCAM): 10.2 nM
B1: mo735: well-known mouse-derived IgG2a monoclonal antibody 735 targeting polysialic acid (antibody, V domains shown)
VH: QIQLQQSGPELVRPGASVKISCKASGYTFTDYYIHWVKQRPGEGLEWIGWIYPGSGNTKYNEKFKGKATLTVDTSSSTAYMQLSSLTSEDSAVYFCARGGKFAMDYWGQGTSVTVSS
VL: DVVMTQTPLSLPVSLGDQASISCRSSQSLVHSNGNTYLYWYLQKPGQSPKPLIYRVSNRFSGVPDRFSGSGSGTDFTLKISRVEAEDLGVYFCFQGTHVPYTFGGGTRLEIK
- ELISA binding to NCAM [1]: specifically recognize polySia
- polySia binding on panel of cell lines compared with ch735 ([2]; staining of each of the cell lines): Identical polySia binding results
- glycan specificity from microarrays [3]: Nearly identical results

- Kd (polysialylated NCAM): 4.79 nM
- glycan array binding to glycans #225 and 226 [3, 4]: not
- glycan array binding to tetra-sialic acid glycan Chart ID #223 [3, 4]: strong preference
B2: ch735: chimeric human IgG1 polySia-specific mAb made by swapping variable regions of mouse mAb 735 (antibody, V domains shown)
VH: B1 VH
VL: B1 VL
- ELISA binding to NCAM [1]: specifically recognize polySia
- surface binding by flow cytometry ([2]; A549 and MCF7 cells): No significant binding above background
- surface binding by flow cytometry ([2]; NCI-H69, NCI-H82 and SH-SY5Y cells): lower intensity
- surface binding by flow cytometry ([2]; SKOV3 and K562 cells): not recognized
- surface binding by flow cytometry ([2]; SW2 cells): bound most avidly
- surface binding following endoN treatment ([2]; polySia-positive cell lines, endoN-treated): lack of surface binding
- glycan specificity from microarrays [3]: α2,8-linked sialic acid with a degree of polymerization (DP) of three or greater
- glycan array binding to glycan Chart ID #224 [3, 4]: lesser but still significant level of binding above background
